Like-named read-outs stand apart in the source and are kept apart here.
What was measured:
[1] = molecular target: BiP-His6 (WT-BiP, aa 19-637) (human) (UniProt P11021); experiment: BLI
[2] = molecular target: BiP-His6 (WT-BiP, aa 19-637) (human) (UniProt P11021); experiment: BLI; remark: listed apart in the source

Sequence of BiP-His6 (WT-BiP, aa 19-637) (human) (P11021 19-637): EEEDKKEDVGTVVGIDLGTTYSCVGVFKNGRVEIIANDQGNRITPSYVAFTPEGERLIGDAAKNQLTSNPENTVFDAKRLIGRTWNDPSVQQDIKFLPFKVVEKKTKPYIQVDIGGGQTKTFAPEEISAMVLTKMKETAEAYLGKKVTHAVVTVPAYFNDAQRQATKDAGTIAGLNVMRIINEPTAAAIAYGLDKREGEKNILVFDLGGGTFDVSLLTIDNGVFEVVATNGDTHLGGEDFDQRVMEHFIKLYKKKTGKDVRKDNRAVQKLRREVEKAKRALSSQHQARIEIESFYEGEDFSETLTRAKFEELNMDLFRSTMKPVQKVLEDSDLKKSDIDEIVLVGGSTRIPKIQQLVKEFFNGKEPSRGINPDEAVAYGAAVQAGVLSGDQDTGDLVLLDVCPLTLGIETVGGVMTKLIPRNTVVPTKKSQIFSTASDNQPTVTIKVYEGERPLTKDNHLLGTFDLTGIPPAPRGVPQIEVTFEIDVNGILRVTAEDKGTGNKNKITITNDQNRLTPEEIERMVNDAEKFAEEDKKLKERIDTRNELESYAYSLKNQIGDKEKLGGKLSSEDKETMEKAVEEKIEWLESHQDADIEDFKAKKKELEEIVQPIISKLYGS

Kd [1]: 18 µM
Kd [2]: 10.2 µM
Substance: E234G-HYPE (aa 102-458) (from UniProt Q9BVA6) (enzyme)
